Data reported in article PMC2844890.

Experiment: infectious virion yield
Conditions: glycan lost; control: WT tetherin

B1: tetherin (BST-2): N65,92A (protein)
parent chain: MASTSYDYCRVPMEDGDKRCKLLLGIGILVLLIIVILGVPLIIFTIKANSEACRDGLRAVMECRNVTHLLQQELTEAQKGFQDVEAQAATCNHTVMALMASLDAEKAQGQKKVEELEGEITTLNHKLQDASAEVERLRRENQVLSVRIADKKYYPSSQDSSSAAAPQLLIVLLGLSALLQ
other: inhibition of virion release: abolishes
